Earlier results, collected in patent US20170136096A1, “Insulin-Containing Prolonged-Action Preparation” (OBSCHESTVO S OGRANCHENNOJ OTVETCTVENNOSTU "BIOSABTEK", priority 2014, published 2017).

Settings: administered under the skin, injection solution pH 4

Substance: glargine
- duration of flat time-concentration profile: ≤ 24 h
